Measurements reported in PMC9190012, “Heparin activation of protein Z-dependent protease inhibitor (ZPI) allosterically blocks protein Z activation through an extended heparin-binding site” (The Journal of Biological Chemistry, 2022).
Positions count from the first letter of the chain named. Numbers in names are those of the source. Values belong to the molecule of their own block, whether it stands above or below them.

How the values were obtained:
Type in all cases: biochemical
[1] = biological target: T1, FXa (Homo sapiens, UniProt P00742); assay: Unaccelerated ZPI–FXa reactions: kinetics and stoichiometry of inhibition; conditions: for ka,app: absence of PZ, 2.5 mM CaCl2, pH 7.4, 25 °C
T1 construct: purchased Enzyme Research Laboratories
Protocol: (§1) Apparent second-order rate constants for unaccelerated and H50-accelerated ZPI–FXa reactions were measured in the absence and presence of the optimal H50 concentration under pseudo–first-order conditions by analyzing full ZPI–FXa reaction progress curves over the ZPI concentration range of 10 to 900 nM with ∼0.5 nM FXa. Full reaction progress curves were also measured for ZPI–FXa reactions in the presence of PZ equimolar with ZPI, 25 μM lipid, and 5 mM CaCl2, as a function of the ZPI concentration in the range of 10 to 40 nM. Identical reaction mixtures were quenched at varying reaction times with substrate, and the time course of protease inactivation was measured from the decrease in initial rates of substrate hydrolysis. The first-order rate of decrease in protease activity with time was computer fit by a single exponential decay function with a nonzero end point and kobs obtained from the fitted exponential decay constant. Apparent second-order association rate constants (ka,app) were obtained from the slopes of linear plots of kobs versus the ZPI concentration according to the equation, kobs=kd+ka,app × [ZPI]0
(§2) In which kd represents the rate constant for ZPI–FXa complex dissociation and [ZPI]o is the total ZPI concentration. kd was fixed at the experimentally determined value of 10^−4 s^−1 for WT and ZPI mutants as described ([18]).
(§3) Fixed concentrations of FXa (50–100 nM FXa) were reacted with increasing concentrations of ZPI, ranging from a approximately threefold to sevenfold molar excess, in the absence of cofactors or in the presence of either 1 μM H50 or PZ equimolar with ZPI, 25 μM lipid, and 5 mM CaCl2, in kinetics buffer at 25 °C in reaction volumes of 50 μl. After allowing sufficient time to reach a reaction end point, based on measured second-order associate rate constants (∼5–30 min), remaining proteolytic activity was measured by reacting an aliquot (5–20 μl) of the reaction mixtures with 1 ml of 100 μM Spectrozyme fXa (American Diagnostica) containing 50 μg/ml Polybrene and 5 mM EDTA and monitoring the rate of absorbance change at 405 nm. The apparent SI was determined from the fitted abscissa intercept of a linear plot of residual protease activity against the molar ratio of inhibitor to protease ([18]). Because the ZPI–PZ complex dissociates to a small extent over the reaction time, apparent SIs depend on the time of incubation. To correct for such complex dissociation, apparent SIs were multiplied by the factor, exp (−kd × t), where kd is the measured complex dissociation rate constant of 10^−4 s^−1 and t the fixed reaction time. Simulations verified the validity of this correction for small extents of dissociation. Reported SIs are average values of at least two independent measurements at different reaction times.

[2] = biological target: T1, FXa; assay: PZ-accelerated ZPI–FXa reactions: kinetics and stoichiometry of inhibition; conditions: for SI / ka,app × SI / ka,app × SI relative to WT: PZ-accelerated; for ka,app: equimolar PZ, 25 μM phospholipid, 5 mM CaCl2, pH 7.4, 25 °C; for PZ enhancement: ratio of PZ-accelerated to unaccelerated ka,app × SI
Protocol: as §1, §2, §3

[3] = biological target: T1, FXa; assay: H50 heparin-accelerated ZPI–FXa reactions: kinetics and stoichiometry of inhibition; conditions: for SI / ka,app × SI / ka,app × SI relative to WT: 1 μM H50; for ka,app: 1 μM H50, 2.5 mM CaCl2, pH 7.4, 25 °C; for H50 rate enhancement: ratio of heparin-accelerated to unaccelerated ka,app × SI
Protocol: Heparin accelerating effects on the kinetics of ZPI–FXa reactions were evaluated as a function of heparin concentration under pseudo–first-order conditions (i.e., with a large molar excess of inhibitor over protease) by incubating reaction mixtures of 100 μl containing 70 nM ZPI and ∼0.5 nM FXa in the absence or presence of varying levels of H50 ranging from 10^−9 to 10^−4 M in 20 mM Tris buffer (pH 7.4), 0.1 M NaCl, 0.1% PEG 8000, 0.1 mg/ml BSA, and 2.5 mM CaCl2 at 25 °C for reaction times of 2 to 5 min. Reactions were quenched by adding 1 ml of 50 μM Pefafluor FXa substrate (Centerchem, Inc) containing 50 μg/ml polybrene and 5 mM EDTA. The initial linear rate of substrate hydrolysis was monitored at an excitation wavelength of 380 nm and an emission wavelength of 440 nm. The observed pseudo–first-order rate constant for reactions (kobs) was calculated from the equation, kobs=In([vo-v∞]/[vt-v∞])/t
where vt and v∞ are the initial velocities of protease hydrolysis of the substrate after reaction with ZPI for the fixed reaction time and after reaching the reaction end point, respectively, vo is the velocity measured in control reactions without ZPI, and t is the fixed reaction time. The dependence of kobs on heparin concentration was computer fit by nonlinear least squares analysis by the ternary complex bridging model equation ([10]).
as §1, §2
as §3, with “Simulations verified the validity of this correction for small extents of dissociation. Reported SIs are average values of at least two independent measurements at different reaction times.” left out

T1 sequence (P00742 235-488 limits assumed): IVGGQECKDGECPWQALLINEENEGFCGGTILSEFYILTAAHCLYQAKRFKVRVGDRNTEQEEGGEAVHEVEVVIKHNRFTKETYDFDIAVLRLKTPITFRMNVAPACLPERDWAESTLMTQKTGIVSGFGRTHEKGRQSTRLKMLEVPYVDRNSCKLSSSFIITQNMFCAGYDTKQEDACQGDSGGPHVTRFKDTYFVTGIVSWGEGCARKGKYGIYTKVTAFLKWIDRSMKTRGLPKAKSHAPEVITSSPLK
T1 sequence (P00742 41-179 limits assumed): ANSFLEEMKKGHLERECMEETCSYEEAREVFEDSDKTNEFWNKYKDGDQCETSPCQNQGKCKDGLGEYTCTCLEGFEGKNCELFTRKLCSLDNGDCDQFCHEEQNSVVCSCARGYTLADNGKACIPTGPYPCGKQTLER

SI [1]: 1.9 ± 0.2 moles ZPI/mole FXa
ka,app × SI [1]: 6.3 ± 1.3 × 10^3 M^−1 s^−1
ka,app × SI relative to WT [1]: (0.39)
ka,app [1]: 3.3 ± 0.3 × 10^3 M^−1 s^−1
SI [2]: 3.3 ± 0.1 moles ZPI/mole FXa
ka,app × SI [2]: 2.1 ± 0.2 × 10^7 M^−1 s^−1
ka,app × SI relative to WT [2]: (0.48)
ka,app [2]: 6.4 ± 0.4 × 10^6 M^−1 s^−1
PZ enhancement [2]: 3317
SI [3]: 1.9 ± 0.1 moles ZPI/mole FXa
ka,app × SI [3]: 3.7 ± 0.4 × 10^5 M^−1 s^−1
ka,app × SI relative to WT [3]: (0.31)
ka,app [3]: 2.0 ± 0.1 × 10^5 M^−1 s^−1
H50 rate enhancement [3]: 59 fold
B1: K284A/R310A: ZPI helix H site double mutant (protein, UniProt Q9UK55 22-444, looked up, variant K284A R310A)
Protein Z-dependent protease …: LAPSPQSPETPAPQNQTSRVVQAPKEEEEDEQEASEEKASEEEKAWLMASRQQLAKETSNFGFSLLRKISMRHDGNMVFSPFGMSLAMTGLMLGATGPTETQIKRGLHLQALKPTKPGLLPSLFKGLRETLSRNLELGLTQGSFAFIHKDFDVKETFFNLSKRYFDTECVPMNFRNASQAKRLMNHYINKETRGKIPKLFDEINPETKLILVDYILFKGKWLTPFDPVFTEVDTFHLDKYKTIKVPMMYGAGKFASTFDKNFRCHVLKLPYQGNATMLVVLMEAMGDHLALEDYLTTDLVETWLRNMKTANMEVFFPKFKLDQKYEMHELLRQMGIRRIFSPFADLSELSATGRNLQVSRVLQRTVIEVDERGTEAVAGILSEITAYSMPPVIKVDRPFHFMIYEETSGMLLFLGRVVNPTLL

SI [1]: 3.2 ± 0.1 moles ZPI/mole FXa
ka,app × SI [1]: 2.9 ± 0.2 × 10^3 M^−1 s^−1
ka,app × SI relative to WT [1]: (0.18)
ka,app [1]: 9.2 ± 0.6 × 10^2 M^−1 s^−1
SI [2]: 7.4 ± 0.3 moles ZPI/mole FXa
ka,app × SI [2]: 2.5 ± 0.2 × 10^7 M^−1 s^−1
ka,app × SI relative to WT [2]: (0.57)
ka,app [2]: 3.4 ± 0.1 × 10^6 M^−1 s^−1
PZ enhancement [2]: 8620
SI [3]: 4.0 ± 0.2 moles ZPI/mole FXa
ka,app × SI [3]: 2.6 ± 0.3 × 10^4 M^−1 s^−1
ka,app × SI relative to WT [3]: (0.02)
ka,app [3]: 6.4 ± 0.5 × 10^3 M^−1 s^−1
B2: K253A/K260A/R263A/R305A/K308A/R310A: ZPI helix H site sextuple mutant (protein, UniProt Q9UK55 22-444, looked up, variant K253A K260A R263A R305A K308A R310A)
Protein Z-dependent protease …: B1 Protein Z-dependent protease … with K253A, K260A, R263A, A284K, R305A, K308A

SI [1]: 2.9 ± 0.3 moles ZPI/mole FXa
ka,app × SI [1]: 7.5 ± 0.9 × 10^3 M^−1 s^−1
ka,app × SI relative to WT [1]: (0.47)
ka,app [1]: 2.6 ± 0.1 × 10^3 M^−1 s^−1
SI [2]: 4.5 ± 0.2 moles ZPI/mole FXa
ka,app × SI [2]: 1.8 ± 0.1 × 10^7 M^−1 s^−1
ka,app × SI relative to WT [2]: (0.41)
ka,app [2]: 3.9 ± 0.1 × 10^6 M^−1 s^−1
PZ enhancement [2]: 2400
SI [3]: 2.9 ± 0.4 moles ZPI/mole FXa
ka,app × SI [3]: 4.9 ± 0.7 × 10^4 M^−1 s^−1
ka,app × SI relative to WT [3]: (0.04)
ka,app [3]: 1.7 ± 0.1 × 10^4 M^−1 s^−1
H50 rate enhancement [3]: 6.5 fold
B3: K260A/R263A/R305A/K308A/R310A: ZPI helix H site quintuple mutant (protein, UniProt Q9UK55 22-444, looked up, variant K260A R263A R305A K308A R310A)
Protein Z-dependent protease …: B1 Protein Z-dependent protease … with K260A, R263A, A284K, R305A, K308A
